Tests used:
gP 140 = gP 140 (Homo sapiens (Human), UniProt P16109); assay: Western blot
[1] = molecular target: human thrombospondin (TSP) (human, UniProt P07996); assay: Western blot
v. Willebrand factor = v. Willebrand factor (Homo sapiens (Human), UniProt P04275); assay: Western blot
fibronectin = fibronectin (Homo sapiens (Human), UniProt P02751-8); assay: immunoprecipitation and Western blotting
fibrinogen = fibrinogen (Homo sapiens (Human), UniProt P02671-2); assay: immunoprecipitation and Western blotting
[2] = molecular target: platelet antigen recognized by MAb BW 2128 (human); assay: reaction with platelets; method not further stated

binding result (gP 140): no binding | binding result [1]: no binding | binding result (v. Willebrand factor): no binding | binding result (fibronectin): no binding | binding result (fibrinogen): no binding | fold stronger reaction with thrombin-activated than with non-activated platelets [2]: > 10 ×
B1: MAb BW 2128 (antibody, V domains shown)
VH: LQQSGAELVKPGASVTLSCKASGYTFTSYWMHWVKQRPGQGLEWIGEINPSNGRTNYNEKFKSKATLTVDKSSSTAYMHLSSLTSDDSAVYYCARGAGAGGYWGQGTTVTVSS
VL: QLTQSPAIMSASPGEKVTMTCSASSSVTYMHWCQQKSGTSPKRWIYDTSKLASGVPARFSGSGSGTSYSLTISSMEAEDAATYYCQQWNSNPLTFGAGTKLEI
